Source: article PMC9472616 (2022)

What follows are binders tested against SARS-CoV-2 WT RBD (SARS-CoV-2, UniProt P0DTC2 319-541) (assay: SPR).

| Binder | Kd [nM] |
| --- | --- |
| BD-368 (antibody, V domains shown) VH: EVQLLESGGGVVQPGGSLRLSCAASGFAFTTYAMNWVRQAPGRGLEWVSAISDGGGSAYYADSVKGRFTISRDNSKNTLYLQMNSLRAEDTAVYYCAKTRGRGLYDYVWGSKDYWGQGTLVTVSS VL: not shown | 3.47 |
| REGN10933 (antibody, V domains shown) VH: QVQLVESGGGLVKPGGSLRLSCAASGFTFSDYYMSWIRQAPGKGLEWVSYITYSGSTIYYADSVKGRFTISRDNAKSSLYLQMNSLRAEDTAVYYCARDRGTTMVPFDYWGQGTLVTVSS VL: DIQMTQSPSSLSASVGDRVTITCQASQDITNYLNWYQQKPGKAPKLLIYAASNLETGVPSRFSGSGSGTDFTFTISGLQPEDIATYYCQQYDNLPLTFGGGTKVEIK | 1.6 |
| CB6 (antibody, V domains shown) VH: EVQLVESGGGLVQPGGSLRLSCAASGFTVSSNYMSWVRQAPGKGLEWVSVIYSGGSTFYADSVKGRFTISRDNSMNTLFLQMNSLRAEDTAVYYCARVLPMYGDYLDYWGQGTLVTVSS VL: not shown | 30 |
| REGN10987 (antibody, V domains shown) VH: QVQLVESGGGVVQPGRSLRLSCAASGFTFSNYAMYWVRQAPGKGLEWVAVISYDGSNKYYADSVKGRFTISRDNSKNTLYLQMNSLRTEDTAVYYCASGSDYGDYLLVYWGQGTLVTVSS VL: QSALTQPASVSGSPGQSITISCTGTSSDVGGYNYVSWYQQHPGKAPKLMIYDVSKRPSGVSNRFSGSKSGNTASLTISGLQSEDEADYYCNSLTSISTWVFGGGTKLTVL | 2.22 |
